Laboratory results from patent US20120276114A1, “IFN-GAMMA INHIBITORS IN THE TREATMENT OF MOTONEURON DISEASES” (UNIVERSITE D'AIX-MARSEILLE, priority 2009, published 2012).

Key:
[1] = system: IFNγ-triggered death of motoneurons; assay: AAV-delivered COMP chimeric receptors: rescue of motoneurons from IFNγ-triggered death; assay type: cell-based, mice; details: AAV vectors; IFNγ 250 ng/ml; survival 48 h later
Description: (§1) FIG. 7 evidences the efficiency of recombinant proteins IFNγR1-COMP, DcR3-COMP, and Fas-COMP (in the form of AAV viral vectors at 1.5×10^5 TU/ml), to interfere with death induced by their respective ligand(s) or cytokine (sFasL (50 ng/ml), sLight (50 ng/ml), IFNγ (250 ng/ml)), in contrast to the negative control (COMP). Cell survival was determined 48 h later as described in Example 4. All values are expressed as the means±S.D of three independent experiments.
(§2) The functionality of the dominant negatives in inhibiting Fas and LIGHT/IFNγ-induced death was evaluated in an isolated motoneurons culture system as described in Example 2. Embryonic motoneurons isolated from spinal cords of E12.5 CD1 mice were cultured for 6 h and then infected with 50 TU/ml of indicated with AAV-IFNγR1-COMP, AAV-DcR3-COMP, AAV-Fas-COMP, or AAV-COMP viral vectors. After 6 h of incubation the culture medium was replaced and motoneurons were treated 48 h later (when indicated) with effective doses of either sFasL (50 ng/ml), sLight (50 ng/ml) or IFNγ (250 ng/ml). Forty-eight hours later, survival was determined by direct counting of motoneurons (FIG. 7). […] On the other hand, IFNγ-triggered death was blocked by IFNγR1-COMP.

[2] = system: corresponding recombinant ligand (recombinant soluble LIGHT and IFNγ); assay: immunoprecipitation of ligand-receptor complex from conditioned media of transduced glioma cell lines; assay type: binding; details: anti-HA immunoprecipitation, immunoblot
Description: The constructs were checked by sequencing. The efficacy of IFNγR1-COMP, DcR3-COMP, Fas-COMP, and COMP to be efficiently secreted by astrocytes and to specifically interact with their respective ligands were evaluated in vitro by immunoprecipitation assays. Glioma cell lines were transduced with vectors encoding IFNγR1-COMP, DcR3-COMP, Fas-COMP, or COMP and conditioned media collected. Recombinant soluble LIGHT and IFNγ were added to different conditioned media. Immunoprecipitation of ligand-receptor complex were performed using anti-hemagglutinin (HA) tag antibody, since these constructs include an HA tag at their C-terminus, and immunocomplexes analysed by SDS-PAGE followed by immunoblotting with antibodies to LIGHT, IFNγR1 and IFNγ.

[3] = system: sFasL-induced death of motoneurons; assay: AAV-delivered COMP chimeric receptors: rescue of motoneurons from sFasL-induced death; assay type: cell-based, mice; details: AAV vectors; sFasL 50 ng/ml; survival 48 h later
Description: as §1, §2

[4] = system: sLIGHT-induced death of motoneurons; assay: AAV-delivered COMP chimeric receptors: rescue of motoneurons from sLIGHT-induced death; assay type: cell-based, mice; details: AAV vectors; sLight 50 ng/ml; survival 48 h later
Description: as §1, §2

LIGHT = assay: expression levels of LIGHT in motoneurons exposed to IFNγ; assay type: cell-based, mouse
Description: Neurons were plated at the density of 20,000 cells/cm^2 in 6-cm diameter dishes containing corresponding complemented Neurobasal medium (see above). Sodium dodecyl sulfate polyacrylamide gel electrophoresis (SDS-PAGE) and Western blotting were carried out on neurons, astrocytes (duplicates) and dissected lumbar spinal cords using protocol previously described in Raoul et al., 2005, above. Primary antibodies were anti-LT-βR (sc-8377, Santa Cruz Biotechnology, 1:500), anti-LIGHT (sc-28880, Santa Cruz Biotechnology, 1:500), anti-IFNγ (sc-52557, Santa Cruz Biotechnology, 1:500), anti-IFNγR1 (559911, BD Biosciences, 1:500), anti-IFNγR2 (ab31606, Abcam, 1:2000), anti-α-tubulin (B-5-1-2, Sigma-Aldrich, 1:20,000), anti-actin (AC-40, Sigma-Aldrich, 1:20,000). Proteins were detected using horseradish peroxidase (HRP)-conjugated secondary antibodies and visualized with the chemiluminescent HRP substrate (Millipore). Where indicated, immunoblot images were quantified and normalized relative to the α-tubulin or actin levels using the NIH ImageJ software.

B1: IFNγR1-COMP: Extracellular part of IFNγR1 fused to COMP, HA-tagged (SEQ ID NO: 15), expressed from AAV vector (protein)
chain: MGPQAAAGRMILLVVLMLSAKVGSGALTSTEDPEPPSVPVPTNVLIKSYNLNPVVCWEYQNMSQTPIFTVQVKVYSGSWTDSCTNISDHCCNIYGQIMYPDVSAWARVKAKVGQKESDYARSKEFLMCLKGKVGPPGLEIRRKKEEQLSVLVFHPEVVVNGESQGTMFGDGSTCYTFDYTVYVEHNRSGEILHTKHTVEKEECNETLCELNISVSTLDSRYCISVDGISSFWQVRTEKSKDVCIPPFHDDRKERPQPQPQPKPQPKPEPEGDLAPQMLRELQETNAALQDVRELLRHRVKEITFLKNTVMECDACGYPYDVPDYA
modifications: HA tag; AAV-expressed; amino acid sequence of mouse IFN gamma R1-cartilage oligomeric matrix protein chimera
rescue of motoneurons from IFNγ-triggered death [1]: blocked | interaction with corresponding recombinant ligand (immunoprecipitation) [2]: effectively interact

B2: COMP: negative control generated by deleting approximately 80% of the extra-cellular part of Fas (secreted COMP) (protein)
chain: PQPQPKPQPKPEPEGDLAPQMLRELQETNAALQDVRELLRHRVKEITFLKNTVMECDACGYPYDVPDYA
modifications: amino acid sequence of a coiled-coil domain of cartilage oligomeric matrix protein
rescue of motoneurons from sFasL-induced death [3]: did not interfere | rescue of motoneurons from IFNγ-triggered death [1]: did not interfere | rescue of motoneurons from sLIGHT-induced death [4]: did not interfere

B3: DcR3-COMP: Extracellular part of DcR3 fused to COMP (SEQ ID NO: 17), decoy for both FasL and LIGHT, AAV-expressed (protein)
chain: MRALEGPGLSLLCLVLALPALLPVPAVRGVAETPTYPWRDAETGERLVCAQCPPGTFVQRPCRRDSPTTCGPCPPRHYTQFWNYLERCRYCNVLCGEREEEARACHATHNRACRCRTGFFAHAGFCLEHASCPPGAGVIAPGTPSQNTQCQPCPPGTFSASSSSSEQCQPHRNCTALGLALNVPGSSSHDTLCTSCTGFPLSTRVPGAEECERAVIDFVAFQDISIKRLQRLLQALEAPEGWGPTPRAGRAALQLKLRRRLTELLGAQDGALLVRLLQALRVARMPGLERSVRERFLPVHPQPQPKPQPKPEPEGDLAPQMLRELQETNAALQDVRELLRHRVKEITFLKNTVMECDACGYPYDVPDYA
modifications: AAV-expressed; Sequence for chimeric protein DcR3-COMP
rescue of motoneurons from sFasL-induced death [3]: rescued | interaction with corresponding recombinant ligand (immunoprecipitation) [2]: effectively interact | rescue of motoneurons from sLIGHT-induced death [4]: rescued

B4: IFNγ: Soluble mouse recombinant IFNγ (Calbiochem; PBL Biomedical laboratories) (protein, UniProt P01580 23-155, looked up)
Interferon gamma: HGTVIESLESLNNYFNSSGIDVEEKSLFLDIWRNWQKDGDMKILQSQIISFYLRLFEVLKDNQAISNNISVIESHLITTFFSNSKAKKDAFMSIAKFEVNNPQVQRQAFNELIRVVHQLLPESSLRKRKRSRC
cell-type restriction of the synergistic lethal effect of IFNγ on LIGHT-induced death (motoneurons; compared with cortical, hippocampal, sensory and striatal neurons): restricted to motoneurons | death of motoneurons (motoneurons; cultured motoneurons, survival 48 h after treatment): about 50% | effect on sFasL-induced death (motoneurons; motoneurons): no effect | effect on LIGHT killing effect (motoneurons; suboptimal dose of sLIGHT and increasing doses of IFNγ): substantially enhances | responsiveness of freshly isolated motoneurons to sLIGHT or agonistic anti-LT-βR antibodies (motoneurons; treated at 0, 24 or 72 h, IFNγ combined with sLIGHT or anti-LT-βR antibodies): responsive to sLIGHT or agonistic anti-LT-βR antibodies | expression levels of LIGHT (LIGHT): significantly enhancing
